This series concerns the molecule itself. As to the kind of experiment: SEC.

Residue numbers refer to the chain shown, from its start. Numbers in names are those of the source.

B1: 17X-PTDH-R301A (phosphite dehydrogenase from Pseudomonas stutzeri WM88, 17X background, Arg301Ala) (enzyme, UniProt O69054 1-336, looked up)
chain: MLPKLVITHRVHEEILQLLAPHCELITNQTDSTLTREEILRRCRDAQAMMAFMPDRVDADFLQACPELRVIGCALKGFDNFDVDACTARGVWLTFVPDLLTVPTAELAIGLAVGLGRHLRAADAFVRSGKFRGWQPRFYGTGLDNATVGFLGMGAIGLAMADRLQGWGATLQYHAAKALDTQTEQRLGLRQVACSELFASSDFILLALPLNADTLHLVNAELLALVRPGALLVNPCRGSVVDEAAVLAALERGQLGGYAADVFEMEDWARADRPQQIDPALLAHPNTLFTPHIGSAVRAVALEIERCAAQNILQALAGERPINAVNRLPKANPAAD
The stoichiometry N is a count of units in the complex or per binding partner. Take B1: the “stoichiometry N” value amounted to 2.

B2: 17X-PTDH (thermostable phosphite dehydrogenase mutant TS-PTDH with the additional E175A mutation) (enzyme, Pseudomonas stutzeri WM88, UniProt O69054 1-336, looked up)
chain: B1 chain with A301R
As for B2, the binding result is recorded as “binds”.

Source of the values: PMC3361975 (Biochemistry, 2012).
